Measurements from patent US20090053203A1 (ONTHERIX, published 2009).
Ends that are not written are not given here.

How the values were obtained:
Assay in all cases: chemical cross-linking of the biotinylated peptide on chilled cells, capture on Ni-NTA plates, detection with an antibody to the marker
transferrin receptor 1 = target: T1, transferrin receptor 1 (UniProt P02786 1-760, limits assumed)
T1 construct: whole, on cells
Description: (§1) HEK293 kidney cell line and 54 tumor cell lines obtained from the National Cancer Institute and passaged in RPMI1640 cell culture medium supplemented with 10% fetal bovine serum and 10 uM FeCl₂. Uptake of streptavidin-horseradish peroxidase (SA-HRP) conjugate and of various SA-HRP::MBD peptide complexes was determined as described (Singh et al. J Biol Chem. 279 (1):477-87 [2004]) using biotinylated MBD9 ([…]) (SEQ ID NO: 10) and MBD21 ([…]) (SEQ ID NO: 4) peptides and SA-HRP. Nuclear and cytoplasmic localization of these proteins was also determined in each case. […] In order to establish the underlying molecular mechanism for this variability, we cross-linked MBD21 peptide to the following cell surface markers at 4 degrees Celsius as previously described (Singh et al. J Biol Chem. 279 (1):477-87 [2004]): transferrin receptor 1, caveolin 1, PCNA, integrins alpha v, 2, 5 and 6, integrins beta 1, 3 and 5. […] Based on the strength of these correlations, it was possible to derive crude predictive formulae for MBD-mediated uptake based on the rate of cross-linking to surface markers. Such predictive formulas could form the basis for a diagnostic procedure to select appropriate targets for MBD-based therapies.

caveolin 1 = target: T2, caveolin 1 (UniProt Q03135 2-178, limits assumed)
T2 construct: whole, on cells
T2 sequence (looked up): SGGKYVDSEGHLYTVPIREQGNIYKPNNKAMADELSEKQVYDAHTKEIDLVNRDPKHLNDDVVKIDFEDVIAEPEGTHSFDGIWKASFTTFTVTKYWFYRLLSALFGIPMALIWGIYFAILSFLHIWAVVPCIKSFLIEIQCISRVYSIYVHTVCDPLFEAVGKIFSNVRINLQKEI
Description: as §1

PCNA = target: T3, PCNA (UniProt P12004 1-261, limits assumed)
T3 construct: whole, on cells
T3 sequence (P12004 whole entry): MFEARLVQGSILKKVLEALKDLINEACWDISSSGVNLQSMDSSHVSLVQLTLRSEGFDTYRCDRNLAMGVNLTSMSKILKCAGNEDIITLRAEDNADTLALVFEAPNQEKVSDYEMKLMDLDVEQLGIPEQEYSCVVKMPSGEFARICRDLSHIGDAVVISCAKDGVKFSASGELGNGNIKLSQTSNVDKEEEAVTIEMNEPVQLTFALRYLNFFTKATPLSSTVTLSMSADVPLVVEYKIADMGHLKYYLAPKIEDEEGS
Description: as §1

T1 sequence (P02786 whole entry): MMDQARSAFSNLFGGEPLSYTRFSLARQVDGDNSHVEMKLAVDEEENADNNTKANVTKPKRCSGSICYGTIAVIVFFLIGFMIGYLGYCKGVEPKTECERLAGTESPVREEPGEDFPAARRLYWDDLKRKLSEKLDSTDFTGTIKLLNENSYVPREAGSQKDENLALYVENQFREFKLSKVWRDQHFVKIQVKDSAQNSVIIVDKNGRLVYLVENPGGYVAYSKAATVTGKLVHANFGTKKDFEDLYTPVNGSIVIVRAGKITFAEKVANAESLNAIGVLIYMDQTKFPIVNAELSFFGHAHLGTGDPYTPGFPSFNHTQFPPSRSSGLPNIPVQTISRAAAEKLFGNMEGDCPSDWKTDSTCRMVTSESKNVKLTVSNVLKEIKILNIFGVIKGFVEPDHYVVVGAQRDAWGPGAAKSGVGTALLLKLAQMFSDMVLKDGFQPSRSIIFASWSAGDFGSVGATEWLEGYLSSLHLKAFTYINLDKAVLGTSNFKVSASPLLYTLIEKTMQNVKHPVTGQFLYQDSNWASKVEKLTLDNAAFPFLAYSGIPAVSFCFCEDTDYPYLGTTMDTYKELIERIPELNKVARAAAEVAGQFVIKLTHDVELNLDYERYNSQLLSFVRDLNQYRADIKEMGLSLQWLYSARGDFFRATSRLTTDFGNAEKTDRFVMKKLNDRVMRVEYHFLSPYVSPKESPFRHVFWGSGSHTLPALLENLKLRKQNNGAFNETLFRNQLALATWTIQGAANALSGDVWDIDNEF

- binding result (transferrin receptor 1): binds
- binding result (caveolin 1): binds
- binding result (PCNA): binds
B1: MBD21 peptide (biotinylated) (peptide)
peptide: KKGFYKKKQCRPSKGRKRGFCWAVDKYG
modifications: cysteine pairing not given here; also: biotinylated, position not given here
notes: also called biotinylated MBD21 peptide
